Reference: paper PMC2605707

Target: RDE-4 variant R2C (dsRBM2 and C-terminus) (C. elegans)
Test: SEC

- stoichiometry N: 2
Substance: RDE-4 variant R2C (dsRBM2 and C-terminus) (domain or fragment)
